These results are taken from US20240082816A1.

Bounds are passed on as bounds.

Assay [1] has as its target IgG. Nature of the assay: affinity precipitation: C12-VVEE to binding molecule 50:1, binding molecule to IgG 10:1, 1 M ammonium sulfate.
For assay [2], the target named is IgG. Nature of the assay: affinity precipitation: C12-VVEE to binding molecule 50:1, binding molecule to IgG 10:2, 1 M ammonium sulfate.
The target of assay [3] is IgG. Nature of the assay: affinity precipitation: co-assembled with C12-VVEE at 10:1, binding molecule to IgG 10:1, 1 M ammonium sulfate, IgG in the supernatant by ProA column.
In assay [4] the target is therapeutic human IgG1 (human). Nature of the assay: affinity precipitation: 5 mM C12-Z33 with 20 µM IgG1, 0.6 M Na2SO4, absorbance of the supernate at 280 nm.
Assay [5] addresses therapeutic human IgG1 (human). Nature of the assay: ITC, 15 °C, PBS pH 7.4, reported per ligand. (In general: In ITC the heat of successive injections is recorded.)
Assay [6] concerns the target therapeutic human IgG1 (human). Nature of the assay: ITC, 15 °C, PBS pH 7.4, reported per IgG1.

Take “C12-VVKKGG-Z33 binding molecule (peptide)”: the IgG precipitation yield with IgG [1] came to 99%; in the assay with IgG [2], 75%. The same substance showed an IgG precipitated out from the solution with IgG [3] of 30%.

In assay [4], “C12-Z33 immuno-amphiphile (self-assembled immunofibers) (peptide)” returned an IgG1 removed from the supernate above 60%.

As usually defined, the Kd is the equilibrium constant for the complex coming apart. In assay [5], Z33 peptide gave a -TΔS° of 13.6 kcal/mol, a Kd of 60 nM, a ΔG° of -9.5 kcal/mol and a ΔH° of -23.1 kcal/mol. In assay [6], this substance registered a -TΔS° of 43.4 kcal/mol, a ΔG° of -10 kcal/mol and a ΔH° of -53.4 kcal/mol.
